In publication PMC9728937 one finds Kd data, which are given here for one substance.

This assay deals with FgSnt1^1-744-GST (Fusarium graminearum). As to the kind of experiment: ITC. The following applies: enzyme.

The substance Cpk1-HIS yielded a Kd of 248 nM.
